From patent US20200255474

B1: recombinant TTK (protein)
chain: MESEDLSGRELTIDSIMNKVRDIKNKFKNEDLTDELSLNKISADTTDNSGTVNQIMMMANNPEDWLSLLLKLEKNSVPLSDALLNKLIGRYSQAIEALPPDKYGQNESFARIQVRFAELKAIQEPDDARDYFQMARANCKKFAFVHISFAQFELSQGNVKKSKQLLQKAVERGAVPLEMLEIALRNLNLQKKQLLSEEEKKNLSASTVLTAQESFSGSLGHLQNRNNSCDSRGQTTKARFLYGENMPPQDAEIGYRNSLRQTNKTKQSCPFGRVPVNLLNSPDCDVKTDDSVVPCFMKRQTSRSECRDLVVPGSKPSGNDSCELRNLKSVQNSHFKEPLVSDEKSSELIITDSITLKNKTESSLLAKLEETKEYQEPEVPESNQKQWQSKRKSECINQNPAASSNHWQIPELARKVNTEQKHTTFEQPVFSVSKQSPPISTSKWFDPKSICKTPSSNTLDDYMSCFRTPVVKNDFPPACQLSTPYGQPACFQQQQHQILATPLQNLQVLASSSANECISVKGRIYSILKQIGSGGSSKVFQVLNEKKQIYAIKYVNLEEADNQTLDSYRNEIAYLNKLQQHSDKIIRLYDYEITDQYIYMVMECGNIDLNSWLKKKKSIDPWERKSYWKNMLEAVHTIHQHGIVHSDLKPANFLIVDGMLKLIDFGIANQMQPDTTSVVKDSQVGTVNYMPPEAIKDMSSSRENGKSKSKISPKSDVWSLGCILYYMTYGKTPFQQIINQISKLHAIIDPNHEIEFPDIPEKDLQDVLKCCLKRDPKQRISIPELLAHPYVQIQTHPVNQMAKGTTEEMKYVLGQLVGLNSPNSILKAAKTLYEHYSGGESHNSSSSKTFEKKRGKK
B2: recombinant MK5 (protein)
chain: MSEESDMDKAIKETSILEEYSINWTQKLGAGISGPVRVCVKKSTQERFALKILLDRPKARNEVRLHMMCATHPNIVQIIEVFANSVQFPHESSPRARLLIVMEMMEGGELFHRISQHRHFTEKQASQVTKQIALALRHCHLLNIAHRDLKPENLLFKDNSLDAPVKLCDFGFAKIDQGDLMTPQFTPYYVAPQVLEAQRRHQKEKSGIIPTSPTPYTYNKSCDLWSLGVIIYVMLCGYPPFYSKHHSRTIPKDMRRKIMTGSFEFPEEEWSQISEMAKDVVRKLLKVKPEERLTIEGVLDHPWLNSTEALDNVLPSAQLMMDKAVVAGIQQAHAEQLANMRIQDLKVSLKPLHSVNNPILRKRKLLGTKPKDSVYIHDHENGAEDSNVALEKLRDVIAQCILPQAGKGENEDEKLNEVMQEAWKYNRECKLLRDTLQSFSWNGRGFTDKVDRLKLAEIVKQVIEEQTTSHESQ

Target: recombinant PHB2
Sequence (chain, as listed by the source): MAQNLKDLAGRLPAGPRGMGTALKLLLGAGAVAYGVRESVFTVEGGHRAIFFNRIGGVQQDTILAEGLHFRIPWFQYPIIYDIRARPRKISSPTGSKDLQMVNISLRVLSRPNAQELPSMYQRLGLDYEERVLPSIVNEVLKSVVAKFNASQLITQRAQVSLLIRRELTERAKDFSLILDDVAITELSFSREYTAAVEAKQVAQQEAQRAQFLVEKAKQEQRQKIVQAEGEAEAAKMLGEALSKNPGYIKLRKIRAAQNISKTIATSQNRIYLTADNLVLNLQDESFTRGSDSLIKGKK

Protein | phosphorylation of PHB2 (Phos-tag SDS-PAGE), molar ratio PHB2:TTK=1:2 or greater | phosphorylation of PHB2 (Phos-tag SDS-PAGE), molar ratio TTK:PHB2 1:1 [% phosphorylation] | phosphorylation of PHB2 (Phos-tag SDS-PAGE), molar ratio PHB2:MK5=1:0.25 [% phosphorylation] | phosphorylation of PHB2 (Phos-tag SDS-PAGE), molar ratio PHB2:MK=1:2 or more
B1 | a band for 75% phosphorylation was clearly detected | 28 | – | –
B2 | – | – | 6.5 | a band for 75% phosphorylation was detected
